# Legend:
# [1] = target: T1, CD40-Fc protein (Sino-Biological), biotinylated (Homo sapiens (Human), UniProt P25942 21-193, biotinylated in the lab (sites not given) when used for capture); test: Octet (BLI); G4P-PDL1 held on captured hPDL1-His, then CD40-Fc 100nM
# T1 construct: Bought; also called CD40-biotin; not shown: Fc of the purchased CD40-Fc
# [2] = target: T2, human CD40 on the cell surface (CD40 transfected HEK293 cells, Ramos human B cells, other CD40-bearing cells) (human, UniProt P25942 21-277); test: flow cytometry, Alexa 647 conjugate on CD40 transfected 293 cells
# T2 construct: the transfected construct is not described further
# T2 sequence (P25942 21-277 limits assumed): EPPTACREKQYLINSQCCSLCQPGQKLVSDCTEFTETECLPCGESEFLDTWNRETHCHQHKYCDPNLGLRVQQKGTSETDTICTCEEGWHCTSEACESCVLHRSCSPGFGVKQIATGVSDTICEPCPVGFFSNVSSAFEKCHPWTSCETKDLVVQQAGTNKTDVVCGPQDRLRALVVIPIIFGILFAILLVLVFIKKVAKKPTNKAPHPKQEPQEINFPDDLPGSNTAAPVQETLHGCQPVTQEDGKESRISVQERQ
# T1 sequence (P25942 21-193): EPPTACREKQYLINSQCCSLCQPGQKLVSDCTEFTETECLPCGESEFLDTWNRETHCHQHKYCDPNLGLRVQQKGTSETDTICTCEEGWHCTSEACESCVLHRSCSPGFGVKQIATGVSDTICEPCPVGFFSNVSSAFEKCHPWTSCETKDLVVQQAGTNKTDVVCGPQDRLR
binder,measurement,setting,value
"anti-PDL1 (MEDI4736) in human IgG4 isotype (antibody, V domains shown, Human IgG4 (228P) format of MEDI4736; also called MEDI4736 IgG4; anti-PD-L1 (MED4736)) VH: EVQLVESGGGLVQPGGSLRLSCAASGFTFSRYWMSWVRQAPGKGLEWVANIKQDGSEKYYVDSVKGRFTISRDNAKNSLYLQMNSLRAEDTAVYYCAREGGWFGELAFDYWGQGTLVTVSS VL: EIVLTQSPGTLSLSPGERATLSCRASQRVSSSYLAWYQQKPGQAPRLLIYDASSRATGIPDRFSGSGSGTDFTLTISRLEPEDFAVYYCQQYGSLPWTFGQGTKVEIKR",binding result,[1],no binding (tested: 100 nM CD40-Fc)
same,binding result,[2],no binding (tested: about 4x10^4 pM)

# Reference: US20190241659A1 (AstraZeneca / MedImmune, published 2019)
